Laboratory results published in paper PMC3758421.

Key:
Experiment in all cases: Spinach sensor fluorescence
streptavidin = streptavidin (UniProt P22629 25-183)
thrombin = thrombin (human, UniProt P00734;P00734 315-363;364-622)
[1] = biological target: MS2 phage coat protein (MCP) (MS2 phage, UniProt P03612 2-130)
Sequence of MS2 phage coat protein (MCP) (P03612 2-130): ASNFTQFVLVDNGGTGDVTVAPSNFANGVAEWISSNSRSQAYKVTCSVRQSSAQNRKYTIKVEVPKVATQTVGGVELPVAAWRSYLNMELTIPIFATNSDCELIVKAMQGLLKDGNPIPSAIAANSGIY

Sequence of streptavidin (P22629 25-183): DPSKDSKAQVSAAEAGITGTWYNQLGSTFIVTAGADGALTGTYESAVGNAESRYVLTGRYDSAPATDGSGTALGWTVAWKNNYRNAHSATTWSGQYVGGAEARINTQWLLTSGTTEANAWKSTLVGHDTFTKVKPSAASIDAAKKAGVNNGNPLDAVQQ

B1: streptavidin sensor (Spinach fusion) (structured_RNA)
RNA: GACGCGACUGAAUGAAAUGGUGAAGGACGGGUCCACGACCGACCAGAAUCAUGCAAGUGCGUAAGAUAGUCGCGGGCCGGGGUUGUUGAGUAGAGUGUGAGCUCCGUAACUAGUCGCGUC
With B1 the binding signal (streptavidin) was 10.3 fold fluorescence increase.

B2: thrombin sensor (Spinach fusion) (structured_RNA)
RNA: GACGCGACUGAAUGAAAUGGUGAAGGACGGGUCCAGGAACAAAGCUGAAGUACUUACCUUGUUGAGUAGAGUGUGAGCUCCGUAACUAGUCGCGUC
In the case of B2, the binding signal (thrombin) is reported as 6.9 fold fluorescence increase.

B3: MCP sensor (Spinach fusion with MS2E) (structured_RNA)
RNA: GACGCGACUGAAUGAAAUGGUGAAGGACGGGUCCAAUGAGGAUCACCCAUUUGUUGAGUAGAGUGUGAGCUCCGUAACUAGUCGCGUC
With B3 the binding signal [1] was 41.7 fold fluorescence increase.
